The DeepSol protein solubility set

assay: soluble on expression in E. coli; label from the status in PepcDB or PDB records

Sequence	soluble on expression in E. coli
GSEEHCAPNKEPVKYGELVVLGYNGALPNGDRGRRKSRFALYKRPKANGVKPSTVHVISTPQASKAISCKGQHSISYTLSRNQTVVVEYTHDKDTDMFQVGRSTESPIDFVVTDTISGSQNTDEAQITQSTISRFACRIVCDRNEPYTARIFAAGFDSSKNIFLGEKAAKWKNPDGHMDGLTTNGVLVMHPRGGFTEESQPGVWREISVCGDVYTLRETRSAQQRGKLVESETNVLQDGSLIDLCGATLLWRTADGLFHTPTQKHIEALRQEINAARPQCPVGLN	soluble
EQKVEAFNIQYKSRTSFKVQVKLNAQGKYQKSQVQSYLQQIGLNDGDLKQESGTLSADLIFTYTVPESNLFSRKNFDTLMKKINFNTTLKIDMVGKDEIMKKILQSTTFTNNLSSQTFQDQSIDLLPYLLYS	not soluble
LAAQMEQTDIELLWKQLEQTPGAQVTVSLEERTVTCEGNVYPFFVDDYTRWRLMEGLDDVGLTLRKEAEIAAFEARRPSFKPVTQ	not soluble
MNHSIPTLRTERLTLRPLAMADFPAYRDFMASPRSTGVGGPYDLPSTWGVFCHDLANWHFFGHGALMIDLGETGECIGQIGINHGPLFPEKELGWLLYEGHEGRGYAAEAAVALRDWAFETLNLPTLVSYVSPQNRKSAAVAERIGGTLDPLAPRSDPEDLVYRYHQVKTA	soluble
MGSDKIHHHHHHMANNFDLHAALTLATKPGPFVTMTLPVTGIPATDRTQFNSLLKQGKEQLEKVAPDRTWSAYAESFTPFEHGPLTNGSATGLLIMAGASDSYHYWLHTPVAATVTVTYQPNVLPILQAQDKTSDYDILLLGRDAFDLAQVRNGRPEMVNLPVDAPVTLEKALGSELRDRGRWQRSAGEHTQYSGTGSLDTAREADQRNYFMMVDAYVSQHYSNVDQVPLILVANASDQGNFRKFSQNAYLDHVVRVVQGPNLAAANQTLAALALSITEQRHQQATQIRRDAYAKVRQNQQVVQDLGPLATAAVQGQVAKLWLRDDASQPGHLTEKGTVMTATALSRQNNLYNDLALQVSRLGGQVEVLPADAMPTSNPVAAQLRLRETVAH	not soluble
MGSDKIHHHHHHMVSEECSSFFYLHNSDFNMFGKKKNEDYSVKTVKVGVDKLTTIALGTMVKGTITVEGDLRLDGIIEGNVSCRGKVVIGPQGRIKGNVTCTGAVLHGMLQGDIQVAEDLIMKSGCTMNGDVYTCKLEIESKARFNGTCNTTEKDTLVTSQVVKPETVDTEK	not soluble
MSLKEEEIQNDFMFEEYHKGDKIVLNSVNGGSKTLIRTDKGFVVEGEEGKVLMFDFFGTFCTPCKEEALDLSKLWKNNSSKFIIIGLTHFEDVSDETVKKFAGDYGAYYFLSNGSSNDRIIAQILKDIDYQNMEQLPFKVVLKNGIYQKISDYWNNNTPTNFYLGKIPTELMQEDLNKIYKGKEGHHHHHH	soluble
MQVSDLFIREMPSDCLPRERLLAIGEKALSNQELLAILLRTGSKEADVMTVAATLLKQFKQLSYLQQATLNELMAIKGIGQVKAIELRAAIELGCRIYQSSQIKFGKVTSSQQVAQRLLQEMKGLQQEHLICIYLNTKNDIIQQKTIFKGSLNQSIAHPREIFREAVKYSSARILLAHNHPSGNPTPSPQDIQFTKRMEECGEMMGIQLLDHIILGDSGYISLREENFFASE	not soluble
MSLRFALTPGEPAGIGPDLCLLLARSAQPHPLIAIASRTLLQERAGQLGLAIDLKDVSPAAWPERPAKAGQLYVWDTPLAAPVRPGQLDRANAAYVLETLTRAGQGCLDGHFAGMITAPVHKGVINEAGIPFSGHTEFLADLTHTAQVVMMLATRGLRVALATTHLPLREVADAISDERLTRVARILHADLRDKFGIAHPRILVCGLNPHAGEGGHLGREEIEVIEPCLERLRGEGLDLIGPLPADTLFTPKHLEHCDAVLAMYHDQGLPVLKYKGFGAAVNVTLGLPIIRTSVDHGTALDLAGSGRIDSGSLQVALETAYQMAASRC	soluble
MGSDKIHHHHHHMMPVRQTLSKPDIQLSYLEWNQGQEPLLLLHGLGDHALVWSSLGDYLAADYHIVAPDMRGHGESTKPERDYTFESAIADLEALMDHLGWTSAQIVSHSWTGKLAAIWARQNRKRLRSIILVDPIFIWKMPSLLRLTFPMLYRFLPFLKSMGPFTSHEEAEQQARQLKQYQGWSSLQEQVFQAGIEQKPDGSWGSKFTIAARDEIFEAVMQVPGFTIPLDIQALFIQPEQGLNRQDWQIQPYKTYLKKLRICQVPGNHWPFLTQPETFNQTVAAFLAEHR	not soluble
MGSDKIHHHHHHMINQVYQLVSPRQFEATFKTIDLHNHNSKVIVRPLYLSICAADLRYYCGNRDSKILSKKLPMSLIHESVGEIVYDSEHRLKNGTKVVMIPNTPSKSHNIIAENYLTSSHFKSSGYDGFMQDYIVMKPDRVVTLPQEIDLSVASYTELVTVSVHAIDRFQSKAIPQFESLGIWGDGNLGYITAVLLKKLYPTTKIIVFGKTLYKLSRFSFVDEIIQIDNIPQHIKIDHAFECVGGKGSQQAIEQIINIINPEGSIALLGVSELPIQVNTRMVLEKGLTIIGSSRSGLKDFEKTIELYRKYPEVLNQLALLKGKEFEINTIEDLITAFEYDISNAWGKTVLKWNI	not soluble
LLNQGGEKLLDYYFTKTNYMERENARRYNDLRDYVKKNKLSTEDTDRLAEWVRRQEVVWMQMYRDHILLYDSQFPYMKANPEYHVTGQFYEWNGYEMIDFQDGEALVFLTGMYTYQFFNY	not soluble
MGSDKIHHHHHHMNVINETANVLKLETGSVTSAKGFSAVGIHTGVKRKRKDLGAIVCEVPASSAAVYTLNKVQAAPLKVTQESIAVEGKLQAMIVNSGIANACTGKRGLDDAYTMRAVGAETFHIPEHYVAVTSTGVIGEFLPMDVITNGIRQLKPEATIEGAHAFNEAILTTDTVEKHTCYQTIVNGKTVTVGGVAKGSGMIHPNMA	soluble
KLAYKLGIGLECPFDKIWSLQTGVSFVSKGTNHTIVETDGISAQAKVNASYLEFPVMVAARFAMDRNTYILVAAGPYGAWGIGGKTKALGYSWSSSSTPDWNTGNVVEINTFGKDGLDLRRFDYGVAIGLSVEYRHYVIGVEGRLGLCKLQKELQGKNITGFVTAGYKF	not soluble
MGSDKIHHHHHHMKKIPCVMMRGGTSRGAFLLAEHLPEDQTQRDKILMAIMGSGNDLEIDGIGGGNPLTSKVAIISRSSDPRADVDYLFAQVIVHEQRVDTTPNCGNMLSGVGAFAIENGLIAATSPVTRVRIRNVNTGTFIEADVQTPNGVVEYEGSARIDGVPGTAAPVALTFLNAAGTKTGKVFPTDNQIDYFDDVPVTCIDMAMPVVIIPAEYLGKTGYELPAELDADKALLARIESIRLQAGKAMGLGDVSNMVIPKPVLISPAQKGGAINVRYFMPHSCHRALAITGAIAISSSCALEGTVTRQIVPSVGYGNINIEHPSGALDVHLSNEGQDATTLRASVIRTTRKIFSGEVYLP	not soluble
MSLTKKDVIKLLEQIATYMELKGENTFKISAYRKAAQSLELDERPLDEISDVTELKGIGKGVAEVINDYRETGESQYLQQLQEEVPEGLIPLLKIQGLGSKKIAKLYKELNIVDKASLQVACENGKVSELSGFAKKTEQNILEAVKQLGAKKDRYPIDQMRRLNQEIIDYIDTLNYIDQYSSAGSFRRFKEMSKDLDFIISTDNPKAVQQQLLNIPNKVKEVAVGNTKVSLELAYDDETIGVDFRLIEPRAFYHTLQHFTGSKEHNIRIRQLAKARDEKVSEYGIEQADGTLIQYDSEAKIYEHFNVNFIPPAMREDGSEFDKDLSNIITLDDINGDIHMHTTYSDGAFSIRDMVEANIAKGYKFMVITDHSQSLRVANGLQVERLLRQNEEIKALDKEYSEIDIYSGTEMDILPDGSLDYDDEILAQLDYVIGAIHQSFNQSEEQIMERLANACRNPYVRHIAHPTGRIIGRRDGYKPNIEQLMALAEETNTVLEINANPHRLDLNAEIVRKYPNVKLTINTDAHHTNHLDFMNYGVATAQKGFVTKDRVINALSREAFKDFIENNIKLKKEGHHHHHH	soluble
SVKRLFKVRSDLDFAEQLWCKMSSSVISYQDLVKCFTLIIQSLQRGDIQPWLHSGSNSLLSKLIHQSYHGTMDTVSLSGTIPVQMLLEIGLDKLKKDYISFFIGQELASLNHLEYFIAPSVDIQEQVYRVQKLHHILEILVSCMPFIKSQHELLFSLTQICIKYYKQNPLDEQHIFQLPVRPTAVKNLYQSEKPQKWRVEIYSGQKKIKTVWQLSDSSPIDHLNFHKPDFSELTLNGSLEERIFFTNMVTCSQVHFK	soluble
MEAQAQGLLETEPLQGTDEDAVASADFSSMLSEEEKEELKAELVQLEDEITTLRQVLSAKERHLVEIKQKLGMNLMNELKQNFSKSWHDMQTTTAYKKTHETLSHAGQKATAAFSNVGTAISKKFGDMSYSIRHSISMPAMRRK	soluble
MQYHEPVWIPAHLTTGEPDSFAAFTLEERLPAILDNLANHADARTDQALQQLAVEIREGEITPLPPVILGLFDQVIKPYTGRRWTDMPFLTVELYFYARILLAFGHTATTLVDPFHPIKNTVSLQAIESLTTMTGYCDSDCDITGLLRWSMTGNTADLSQQVVTDAGQISLLVDESYVAGGLFDSGLNRIDFVFDNAGMDVLTDLLLILRISRHCSRIVAHVRPWPMFVSDVTMTDMKYLIRKLVTSSIPAAKKLGEDITQLLHQNRLIFRSSSALGLPVCFCEEEALTRETFENTELVIFKGDLNYRYFVGDRRWPHTMEKRYFFERFSQPAICLRTLKSEVLVGLPADIATRTLHLQPDWLTSGRYGIIQVFAHMAGDPNSLEHHHHHH	not soluble
MGHHHHHHSHMIVNVIGAGLAGSEVAYNLGKRGIRVRLFEMRPKKMTEVHKTGYFAELVCSNSLKSEDITNAEGLLKAEMRLMGSITLEAAEKARVPSGKALAVDRNIFAKEVTEVIERLESVEIIREEVTEFDPEEGIWVVATGPATSDGLLPFLKKLLGDDLLFFFDAVSPIVTFESIDMECAFWGDRFGKGKDYINCPLTKEEYEEFWKALVEAEVIEMEDFDRKLLFERCQPIEEIARSGKDALRYGPLRPTGLVDPRTGKEPYAVVQLRREDKEGRFYSLVGFQTRLKWSEQKRVLRKIPCLRNAEIVRYGVMHRNVYINSPKLLDIFFRLKKHPNIFFAGQITGVEGYMESAASGIYVAYNVHRILKGLSPLKLPEETMMGALFSYIIEKVEGDLKPMYANFGLLPPLKVRVKDKFEKRKKLAERAIETMKKFLEENPW	soluble
SNAMSELSYRRILLKLSGEALMGDGDYGIDPKVINRLAHEVIEAQQAGAQVALVIGGGNIFRGAGLAASGMDRVTGDHMGMLATVINALAMQDALEKLGAKVRVMSAIKINDVCEDFIRRRAIRHLEKGRIAIFAAGTGNPFFTTDSGAALRAIEIGADLLLKATKVDGVYDKDPKKHSDAVRYDSLTYDEVIMQGLEVMDTAAFALARDSDLPLRIFGMSEPGVLLRILHGAQIGTLVQGRS	soluble
MGSDKIHHHHHHMIIHEITEECFKKYGKVIDSIDLTELVSTMQTVEIPADVVYEPSISALEKLKCATELQQKTYGELPIQIGWCIGNNHKLNAVEYHRCSEVNIAATDAILILGRQQDISVENTYDTSLMEAFRIPSGTAVELYATTLHYAPCNASAGGFLVAVVLPKGTNEALEHPHTGGEDALLAAKNKWLIGHPEGGLPDGSYIGLTGENLEIK	not soluble
MFCEKAMELIRELHRAPEGQLPAFNEDGLRQVLEEMKALYEQNQSDVNEAKSGGRSDLIPTIKFRHCSLLRNRRCTVAYLYDRLLRIRALRWEYGSILPNALRFHMAAEEMEWFNNYKRSLATYMRSLGGDEGLDITQDMKPPKSLYIEVRCLKDYGEFEVDDGTSVLLKKNSQHFLPRWKCEQLIRQGVLEHILS	soluble
MNQPDISTLVQRIEQLELNQSRLRILLSHAPEKHKAFDKACYVANLSFEQEAHVRQTILDFLDSDKEDINELLSSIEAIVRYTVDAKSLISGFKMRGTAPDRWKQIDPHNEC	not soluble
